Measured values as given in US20120027774A1 (DYAX, published 2012).
One block for each binder: values may come before it.

What was measured:
human MMP-9 = human MMP-9 (human, UniProt P14780 107-707, limits assumed); assay: cell-based or functional assay
[1] = target: T1, Human MMP-9 catalytic domain (BIOMOL, SE-244) (human, UniProt P14780 107-445, limits assumed); assay: cell-based or functional assay
[2] = target: T1, Human MMP-9 catalytic domain (BIOMOL, …); assay: enzyme inhibition, competitive model; intercept of IC50 against substrate concentration (3 to 15 µM), 0.6 nM enzyme
Procedure: Experiments were performed to characterize the interaction of the M0166-F10 hIgG1 with human MMP-9. The Ki was measured and the inhibition mechanism was determined.
Materials: [0427] Substrate: Mca-KPLGL-Dap(Dnp)-AR-NH₂ (M-2350) from BACHEM (521575). A 10 mM stock solution was prepared in DMSO. [0428] Human MMP-9 catalytic domain (BIOMOL, SE-244), stock solution at 0.24 mg/ml. [0429] M0166-F10 hIgG1: 2551-095. Dialysed against TCN. Stock solution at 0.226 mg/ml. [0430] Experiments were performed in TCNB: 50 mM Tris/HCl, 10 mM CaCl₂, 150 mM NaCl, 0.05% Brij 35, pH 7.5. [0431] 96-well black plates from Perkin Elmer (6005270). [0432] Spectramax M2e to measure fluorescence emission of the substrate upon hydrolysis (temperature control set at 30° C.; λexc=328 nm and λₑₘ=393 nm).
Procedure: [0434] 90 μl of the enzyme (final concentration=0.6 nM) was preincubated with 90 μl of various concentrations (0-100 nM final) of M0166-F10 for 1.5 h at 30° C. 20 μl the substrate was then added to a final concentration ranging from 3 to 15 μM, and initial rates were recorded. [0435] Each data point was measured in triplicate, and initial rates were averaged. […] Averaged initial rates were plotted against the M0166-F10 concentration for each substrate concentration, and IC₅₀'s were calculated using the following equation: […]

[3] = target: T1, Human MMP-9 catalytic domain (BIOMOL, …); assay: cell-based or functional assay; remark: listed apart in the source
[4] = target: T1, Human MMP-9 catalytic domain (BIOMOL, …); assay: cell-based or functional assay; remark: listed apart in the source
[5] = target: T1, Human MMP-9 catalytic domain (BIOMOL, …); assay: cell-based or functional assay; remark: listed apart in the source
human MMP-8 = human MMP-8 (human, UniProt P22894 100-262, limits assumed); assay: cell-based or functional assay
human MMP-12 = human MMP-12 (human, UniProt P39900 106-268, limits assumed); assay: cell-based or functional assay
human MMP-2 = human MMP-2 (human, UniProt P08253 110-452, limits assumed); assay: cell-based or functional assay
human MMP-10 = human MMP-10 (human, UniProt P09238 99-271, limits assumed); assay: cell-based or functional assay
human MMP-14 = human MMP-14 (human, UniProt P50281 112-284, limits assumed); assay: cell-based or functional assay
mouse MMP-9 = mouse MMP-9 (mouse, UniProt P41245 20-730, limits assumed); assay: cell-based or functional assay
human MMP-3 = human MMP-3 (human, UniProt P08254 100-272, limits assumed); assay: cell-based or functional assay
human MMP-1 = target: T2, human MMP-1 (human, UniProt P03956 100-269, limits assumed); assay: cell-based or functional assay
T2 sequence (looked up): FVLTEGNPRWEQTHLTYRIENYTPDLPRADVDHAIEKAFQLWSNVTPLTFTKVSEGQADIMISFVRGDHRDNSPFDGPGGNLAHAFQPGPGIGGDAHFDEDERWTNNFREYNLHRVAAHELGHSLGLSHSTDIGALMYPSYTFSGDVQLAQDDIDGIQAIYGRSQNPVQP

mouse MMP-2 = mouse MMP-2 (mouse, UniProt P33434 30-662, limits assumed); assay: cell-based or functional assay
human MMP-13 = human MMP-13 (human, UniProt P45452 104-274); assay: cell-based or functional assay
human MMP-7 = target: T3, human MMP-7 (human, UniProt P09237 95-267); assay: cell-based or functional assay
T3 sequence (looked up): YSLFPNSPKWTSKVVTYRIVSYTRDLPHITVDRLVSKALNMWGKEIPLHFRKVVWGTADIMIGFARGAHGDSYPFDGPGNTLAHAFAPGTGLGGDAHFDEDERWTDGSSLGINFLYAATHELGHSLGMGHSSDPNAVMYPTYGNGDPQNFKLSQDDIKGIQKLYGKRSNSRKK

T1 sequence (P14780 107-445 limits assumed): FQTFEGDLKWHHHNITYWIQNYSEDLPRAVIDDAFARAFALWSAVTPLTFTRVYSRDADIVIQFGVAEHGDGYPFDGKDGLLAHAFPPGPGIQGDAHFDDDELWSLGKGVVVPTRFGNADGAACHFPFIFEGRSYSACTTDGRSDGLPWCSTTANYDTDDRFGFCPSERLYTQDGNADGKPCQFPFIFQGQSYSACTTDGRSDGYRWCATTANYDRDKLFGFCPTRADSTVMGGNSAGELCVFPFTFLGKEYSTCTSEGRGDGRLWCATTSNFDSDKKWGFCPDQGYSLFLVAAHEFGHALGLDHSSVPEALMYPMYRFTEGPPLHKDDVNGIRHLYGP
Sequence of mouse MMP-2 (P33434 30-662 limits assumed): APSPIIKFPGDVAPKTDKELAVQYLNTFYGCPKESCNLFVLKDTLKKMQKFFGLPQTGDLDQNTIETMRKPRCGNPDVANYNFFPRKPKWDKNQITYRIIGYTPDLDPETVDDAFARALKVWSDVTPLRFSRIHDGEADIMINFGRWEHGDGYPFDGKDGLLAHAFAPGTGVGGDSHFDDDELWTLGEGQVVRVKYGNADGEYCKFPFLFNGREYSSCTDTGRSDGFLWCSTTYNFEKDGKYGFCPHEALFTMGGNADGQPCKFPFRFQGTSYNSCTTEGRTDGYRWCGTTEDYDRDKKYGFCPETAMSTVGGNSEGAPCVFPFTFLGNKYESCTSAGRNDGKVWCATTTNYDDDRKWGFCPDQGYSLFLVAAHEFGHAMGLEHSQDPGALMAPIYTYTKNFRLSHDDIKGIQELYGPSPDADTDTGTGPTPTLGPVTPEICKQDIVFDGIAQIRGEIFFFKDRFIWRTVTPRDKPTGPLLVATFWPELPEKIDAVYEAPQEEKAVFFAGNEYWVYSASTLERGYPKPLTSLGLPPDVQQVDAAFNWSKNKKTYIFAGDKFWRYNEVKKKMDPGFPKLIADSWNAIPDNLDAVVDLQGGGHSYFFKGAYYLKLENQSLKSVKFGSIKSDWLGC
Sequence of human MMP-12 (P39900 106-268 limits assumed): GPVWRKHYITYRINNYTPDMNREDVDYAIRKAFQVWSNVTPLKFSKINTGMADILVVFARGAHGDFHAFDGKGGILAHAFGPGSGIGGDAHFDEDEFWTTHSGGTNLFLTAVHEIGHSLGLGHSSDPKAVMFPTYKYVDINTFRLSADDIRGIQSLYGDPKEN
Sequence of human MMP-8 (P22894 100-262 limits assumed): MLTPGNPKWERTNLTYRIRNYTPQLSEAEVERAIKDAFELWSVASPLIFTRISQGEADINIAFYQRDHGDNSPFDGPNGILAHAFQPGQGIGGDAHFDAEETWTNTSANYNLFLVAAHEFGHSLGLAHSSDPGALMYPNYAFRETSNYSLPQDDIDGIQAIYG
Sequence of human MMP-3 (P08254 100-272 limits assumed): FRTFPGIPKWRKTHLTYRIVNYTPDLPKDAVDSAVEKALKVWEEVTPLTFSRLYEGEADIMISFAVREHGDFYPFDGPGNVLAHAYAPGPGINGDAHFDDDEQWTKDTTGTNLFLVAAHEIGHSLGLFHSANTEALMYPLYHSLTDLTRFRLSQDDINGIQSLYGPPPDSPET
Sequence of human MMP-9 (P14780 107-707 limits assumed): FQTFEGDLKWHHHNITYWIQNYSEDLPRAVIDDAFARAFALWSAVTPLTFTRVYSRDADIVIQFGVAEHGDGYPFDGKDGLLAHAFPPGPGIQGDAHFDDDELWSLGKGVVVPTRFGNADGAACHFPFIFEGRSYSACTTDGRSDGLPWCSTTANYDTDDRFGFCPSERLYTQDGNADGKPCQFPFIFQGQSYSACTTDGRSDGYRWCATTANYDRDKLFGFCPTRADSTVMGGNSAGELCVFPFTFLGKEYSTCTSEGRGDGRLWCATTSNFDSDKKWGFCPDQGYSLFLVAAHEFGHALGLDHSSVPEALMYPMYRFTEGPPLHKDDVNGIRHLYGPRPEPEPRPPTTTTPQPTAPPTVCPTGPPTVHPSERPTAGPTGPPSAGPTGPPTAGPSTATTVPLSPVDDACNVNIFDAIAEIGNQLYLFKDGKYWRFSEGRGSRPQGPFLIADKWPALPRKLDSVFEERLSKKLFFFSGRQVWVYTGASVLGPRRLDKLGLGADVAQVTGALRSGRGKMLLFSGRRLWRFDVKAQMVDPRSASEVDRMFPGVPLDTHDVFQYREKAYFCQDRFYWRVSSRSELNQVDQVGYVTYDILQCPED
Sequence of mouse MMP-9 (P41245 20-730 limits assumed): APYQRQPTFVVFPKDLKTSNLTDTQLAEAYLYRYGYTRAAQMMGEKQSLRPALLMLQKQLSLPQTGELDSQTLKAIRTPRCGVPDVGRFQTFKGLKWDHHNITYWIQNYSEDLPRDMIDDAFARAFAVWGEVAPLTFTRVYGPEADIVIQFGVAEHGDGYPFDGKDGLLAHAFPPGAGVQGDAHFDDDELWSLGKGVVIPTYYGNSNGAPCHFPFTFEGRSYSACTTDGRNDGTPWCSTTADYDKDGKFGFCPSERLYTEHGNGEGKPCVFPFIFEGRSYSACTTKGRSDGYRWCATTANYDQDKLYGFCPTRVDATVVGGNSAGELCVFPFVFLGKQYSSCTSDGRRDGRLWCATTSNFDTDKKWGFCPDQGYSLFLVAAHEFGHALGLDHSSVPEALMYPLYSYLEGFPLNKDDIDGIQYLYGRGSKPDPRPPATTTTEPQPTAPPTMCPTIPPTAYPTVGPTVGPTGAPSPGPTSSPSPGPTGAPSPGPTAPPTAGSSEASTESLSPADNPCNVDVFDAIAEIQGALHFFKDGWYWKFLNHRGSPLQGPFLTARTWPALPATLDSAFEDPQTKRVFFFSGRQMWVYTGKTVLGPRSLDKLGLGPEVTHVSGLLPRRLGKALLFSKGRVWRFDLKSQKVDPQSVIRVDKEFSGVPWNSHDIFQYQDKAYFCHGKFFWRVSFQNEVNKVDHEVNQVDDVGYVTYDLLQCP
Sequence of human MMP-2 (P08253 110-452 limits assumed): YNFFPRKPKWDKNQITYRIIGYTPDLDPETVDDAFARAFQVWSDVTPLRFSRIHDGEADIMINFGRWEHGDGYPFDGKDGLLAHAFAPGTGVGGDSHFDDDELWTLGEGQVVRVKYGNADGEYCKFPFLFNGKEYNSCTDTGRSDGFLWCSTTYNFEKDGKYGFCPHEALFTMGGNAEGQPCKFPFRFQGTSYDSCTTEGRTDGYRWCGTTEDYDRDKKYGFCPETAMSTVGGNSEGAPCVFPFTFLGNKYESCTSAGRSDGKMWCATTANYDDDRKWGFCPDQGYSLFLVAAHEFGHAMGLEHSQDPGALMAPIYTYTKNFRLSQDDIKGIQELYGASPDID
Sequence of human MMP-10 (P09238 99-271 limits assumed): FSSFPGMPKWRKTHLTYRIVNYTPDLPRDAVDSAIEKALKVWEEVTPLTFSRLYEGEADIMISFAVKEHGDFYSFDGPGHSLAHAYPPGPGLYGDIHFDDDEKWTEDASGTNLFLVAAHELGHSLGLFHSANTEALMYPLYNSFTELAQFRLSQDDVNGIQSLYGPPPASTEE

IC50, inhibition of MMP-9 activity (human MMP-9): 1.8 nM
B1: 539A-M0166-F10 (format not stated: Fab or hIgG-1) (antibody, V domains shown)
VH: EVQLLESGGGLVQPGGSLRLSCAASGFTFSPYLMNWVRQAPGKGLEWVSSIYSSGGGTGYADSVKGRFTISRDNSKNTLYLQMNSLRAEDTAVYYCARIYHSSSGPFYGMDVWGQGTTVTVSS
VL: AQSELTQPPSASAAPGQRVTISCSGSSSNIGSNTVTWYQKLPGTAPKLLIYNNYERPSGVPARFSGSKSGTSASLAISGLQSEDEADYYCATWDDSLIANYVFGSGTKVTVLG

a (intercept) of the linear fit of IC50 (nM) against M-2350 substrate concentration (µM); unit taken from the IC50 axis [1]: 0.586 nM
b (gradient) of the linear fit of IC50 (nM) against M-2350 substrate concentration (µM); unit not given [1]: 0.39
Ki [2]: 0.3 nM
IC50 (inhibition of enzyme activity, 3 µM substrate M-2350, 0.6 nM enzyme); unit from the concentration axis [panel 3µM] [3]: 2.16 nM
IC50 (inhibition of enzyme activity, 5 µM substrate M-2350, 0.6 nM enzyme); unit from the concentration axis [panel 5µM] [3]: 2.45 nM
IC50 (inhibition of enzyme activity, 7.5 µM substrate M-2350, 0.6 nM enzyme); unit from the concentration axis [panel 7.5µM] [3]: 4.22 nM
IC50 (inhibition of enzyme activity, 10 µM substrate M-2350, 0.6 nM enzyme); unit from the concentration axis [panel 10µM] [3]: 3.99 nM
IC50 (inhibition of enzyme activity, 12.5 µM substrate M-2350, 0.6 nM enzyme) [panel 12.5µM] [3]: 5.35 nM
IC50 (inhibition of enzyme activity, 15 µM substrate M-2350, 0.6 nM enzyme); unit from the concentration axis [panel 15µM] [3]: 7.06 nM
residual enzyme activity in the presence of 1 µM antibody, 10 µM fluorogenic peptide substrate (unit not given) [4]: 4
IC50 on human MMP-9 activity (fluorogenic substrate, 10 µM) [5]: 4.3 nM
B2: 539A-M0166-F10 hIgG1 (antibody, V domains shown)
VH: EVQLLESGGGLVQPGGSLRLSCAASGFTFSPYLMNWVRQAPGKGLEWVSSIYSSGGGTGYADSVKGRFTISRDNSKNTLYLQMNSLRAEDTAVYYCARIYHSSSGPFYGMDVWGQGTTVTVSS
VL: QSELTQPPSASAAPGQRVTISCSGSSSNIGSNTVTWYQKLPGTAPKLLIYNNYERPSGVPARFSGSKSGTSASLAISGLQSEDEADYYCATWDDSLIANYVFGSGTKVTVLG
notes: Human IgG1; also called DL15

residual enzyme activity in the presence of 1 µM antibody, 10 µM fluorogenic peptide substrate (unit not given) (human MMP-8): 100
residual enzyme activity in the presence of 1 µM antibody, 10 µM fluorogenic peptide substrate (unit not given) (human MMP-12): 90
residual enzyme activity in the presence of 1 µM antibody, 10 µM fluorogenic peptide substrate (unit not given) (human MMP-2): 126
residual enzyme activity in the presence of 1 µM antibody, 10 µM fluorogenic peptide substrate (unit not given) (human MMP-10): 102
residual enzyme activity in the presence of 1 µM antibody, 10 µM fluorogenic peptide substrate (unit not given) (human MMP-14): 115
residual enzyme activity in the presence of 1 µM antibody, 10 µM fluorogenic peptide substrate (unit not given) (mouse MMP-9): 94
residual enzyme activity in the presence of 1 µM antibody, 10 µM fluorogenic peptide substrate (unit not given) [4]: 8
residual enzyme activity in the presence of 1 µM antibody, 10 µM fluorogenic peptide substrate (unit not given) (human MMP-3): 82
residual enzyme activity in the presence of 1 µM antibody, 10 µM fluorogenic peptide substrate (unit not given) (human MMP-1): 104
residual enzyme activity in the presence of 1 µM antibody, 10 µM fluorogenic peptide substrate (unit not given) (mouse MMP-2): 113
residual enzyme activity in the presence of 1 µM antibody, 10 µM fluorogenic peptide substrate (unit not given) (human MMP-13): 106
residual enzyme activity in the presence of 1 µM antibody, 10 µM fluorogenic peptide substrate (unit not given) (human MMP-7): 93
IC50 on human MMP-9 activity (fluorogenic substrate, 10 µM) [5]: ~33 nM
B3: 539A-M0166-F10 Fab (Fab, V domains shown)
VH: EVQLLESGGGLVQPGGSLRLSCAASGFTFSPYLMNWVRQAPGKGLEWVSSIYSSGGGTGYADSVKGRFTISRDNSKNTLYLQMNSLRAEDTAVYYCARIYHSSSGPFYGMDVWGQGTTVTVSS
VL: AQSELTQPPSASAAPGQRVTISCSGSSSNIGSNTVTWYQKLPGTAPKLLIYNNYERPSGVPARFSGSKSGTSASLAISGLQSEDEADYYCATWDDSLIANYVFGSGTKVTVLG
